Patent US8835119B2, “Lectin pathway deficiency assay” (Euro Diagnostica AB, priority 2002, dated 2014)

B1: gC1qR: globular C1q receptor, binds specifically to the globular head of C1q (protein, UniProt Q07021 74-282, looked up)
Complement component 1 Q …: LHTDGDKAFVDFLSDEIKEERKIQKHKTLPKMSGGWELELNGTEAKLVRKVAGEKITVTFNINNSIPPTFDGEEEPSQGQKVEEQEPELTSTPNFVVEVIKNDDGKKALVLDCHYPEDEVGQEDEAESDIFSIREVSFQSTGESEWKDTNYTLNTDSLDWALYDHLMDFLADRGVDNTFADELVELSTALEHQEYITFLEDLKSFVKSQ
B2: Decorin: dermatan sulfate proteoglycan, a constituent of the extracellular matrix (protein, UniProt P07585 31-359, looked up)
Decorin: DEASGIGPEVPDDRDFEPSLGPVCPFRCQCHLRVVQCSDLGLDKVPKDLPPDTTLLDLQNNKITEIKDGDFKNLKNLHALILVNNKISKVSPGAFTPLVKLERLYLSKNQLKELPEKMPKTLQELRAHENEITKVRKVTFNGLNQMIVIELGTNPLKSSGIENGAFQGMKKLSYIRIADTNITSIPQGLPPSLTELHLDGNKISRVDAASLKGLNNLAKLGLSFNSISAVDNGSLANTPHLRELHLDNNKLTRVPGGLAEHKYIQVVYLHNNNISVVGSSDFCPPGHNTKKASYSGVSLFSNPVQYWEIQPSTFRCVYVRSAIQLGNYK
B3: Calreticulin (protein, UniProt P27797 18-417, looked up)
Calreticulin: EPAVYFKEQFLDGDGWTSRWIESKHKSDFGKFVLSSGKFYGDEEKDKGLQTSQDARFYALSASFEPFSNKGQTLVVQFTVKHEQNIDCGGGYVKLFPNSLDQTDMHGDSEYNIMFGPDICGPGTKKVHVIFNYKGKNVLINKDIRCKDDEFTHLYTLIVRPDNTYEVKIDNSQVESGSLEDDWDFLPPKKIKDPDASKPEDWDERAKIDDPTDSKPEDWDKPEHIPDPDAKKPEDWDEEMDGEWEPPVIQNPEYKGEWKPRQIDNPDYKGTWIHPEIDNPEYSPDPSIYAYDNFGVLGLDLWQVKSGTIFDNFLITNDEAYAEEFGNETWGVTKAAEKQMKDKQDEEQRLKEEEEDKKRKEEEEAEDKEDDEDKDEDEEDEEDKEEDEEEDVPGQAKDEL

Legend:
[1] = target: T1, C1q (Homo sapiens, UniProt P02745+P02746+P02747); experiment: C1q-dependent hemolytic assay; format: cell-based; set-up: Human C1q was isolated from human donor plasma exactly as described previously; from tissue; host or cells: human donor plasma
Description: (Roos A., et al., J. Immunol. 167, 7052-7059, 2001).
For the preparation of C1q-depleted serum, undiluted normal human EDTA plasma (obtained from a donor with the MBL/AA genotype) was applied on column consisting of Biogel A5 (from Biorad) coupled to rabbit IgG anti-human C1q. The column was washed by using Veronal-buffered saline (VBS; 1.8 mM Na-5,5-diethylbarbital, 0.2 mM 5,5-diethylbarbituric acid, 145 mM NaCl) containing 10 mM EDTA. Fractions were tested in a C1q-dependent hemolytic assay in the absence or presence of purified C1q. […] After recalcification, C1q-depleted serum was stored at −80° C.

[2] = system: classical pathway (CP) of complement; experiment: Classical pathway ELISA: complement activation by NHS on immobilized IgM; format: biochemical, human; settings: FIG. 3C; C1q-depleted NHS 1/400, purified C1q 0.5 μg/ml
Description: Anti-C1q antibodies were tested for their ability to inhibit the CP of complement by using immobilized IgM as a specific activator of the CP. […] These antibodies were tested for their effect on complement activation induced by immobilized mannan.
As a ligand for CP activation, human IgM was coated at 2 μg/ml. After blocking of residual binding sites, serum samples, diluted in GVB++, were added to the plate and incubated for 1 hour at 37° C.
The complement activation cascade was further studied by using mAb to detect binding of specific complement components upon their activation via the CP and the LP, respectively. […] Therefore, addition of mAb 2004 to serum allows the specific detection of LP activation by using mannan as ligand without any interference of the CP.

[3] = system: lectin pathway (LP) of complement; experiment: Lectin pathway ELISA: complement activation by NHS on immobilized mannan; format: biochemical, human; settings: FIG. 3C; C1q-depleted NHS 1/400, purified C1q 0.5 μg/ml
Description: Functional activity of the lectin pathway was assessed with ELISA by using immobilized mannan as a ligand. Mannan was obtained from Sigma from Saccharomyces cerevisiae; M7504), dissolved in PBS (10 mg/ml) and stored at −20° C. Nunc Maxisorb plates (Nunc, Roskilde, Denmark) were coated with mannan (100 μg/ml) in coating buffer (100 mM Na2CO3/NaHCO3, pH 9.6) for 16 hours at room temperature or for 2 hours at 37° C. After each step, the plates were washed three times with PBS containing 0.05% Tween 20. Residual binding sites were blocked by incubation for one hour at 37° C. with PBS containing 1% BSA. […] This mixture was pre-incubated for 15 minutes on ice, before addition to the plates. […] Complement binding was detected by using mouse mAb conjugated to digoxygenin (dig) by using digoxygenin-3-O-methylcarbonyl-ε-aminocaproic acid-N-hydroxysuccinimide ester (from Boehringer Mannheim, Mannheim, Germany) according to instructions provided by the manufacturer. […] Binding of mAb was detected by using dig-conjugated sheep anti-mouse antibodies (Fab fragments) followed by HRP-conjugated sheep anti-dig antibodies (Fab fragments, both from Boehringer Mannheim). […] Enzyme activity of HRP was detected following incubation at room temperature for 30-60 min with 2,2′-azino-bis(3-ethylbenzthiazoline-6-sulfonic acid) (from Sigma; 2.5 mg/ml in 0.1 M citrate/Na2HPO4 buffer, pH 4.2) in the presence of 0.01% H2O2. […]

[4] = target: T1, C1q; settings: cited from earlier work
[5] = system: classical complement pathway; settings: several in vitro assays; cited from earlier work
[6] = target: T1, C1q; set-up: Human C1q was isolated from human donor plasma exactly as described previously; from tissue; host or cells: human donor plasma; settings: cited from earlier work
[7] = target: T1, C1q; set-up: Human C1q was isolated from human donor plasma exactly as described previously; from tissue; host or cells: human donor plasma; settings: cited from earlier work; remark: listed apart in the source
[8] = system: alternative pathway (AP) of complement; settings: NHS in calcium-free buffer (GVB/MgEGTA)
Description: As a ligand for AP activation, LPS was coated at 10 μg/ml. LPS from Salmonella typhosa was obtained from Sigma (L-6386), dissolved in PBS at 1.6 mg/ml and stored at −20° C. Plates were blocked by using 1% BSA in PBS. Serum samples were diluted in GVB/MgEGTA (VBS containing 10 mM EGTA, 5 mM MgCl2, 0.05% Tween-20, and 0.1% gelatin; pH 7.5) and incubated in the plate for 1 hour at 37° C. Complement binding was assessed by using dig-conjugated mAb directed against C4 and C3 followed by the detection of mAb binding by using HRP-conjugated sheep anti-dig antibodies.
In order to enable the detection of all complement activation pathways in one assay system, the activation of the alternative pathway in an ELISA system was also studied. […] Therefore, a calcium-free buffer was used, thus excluding involvement of the CP and the LP.

T1 sequence (P02745 23-245): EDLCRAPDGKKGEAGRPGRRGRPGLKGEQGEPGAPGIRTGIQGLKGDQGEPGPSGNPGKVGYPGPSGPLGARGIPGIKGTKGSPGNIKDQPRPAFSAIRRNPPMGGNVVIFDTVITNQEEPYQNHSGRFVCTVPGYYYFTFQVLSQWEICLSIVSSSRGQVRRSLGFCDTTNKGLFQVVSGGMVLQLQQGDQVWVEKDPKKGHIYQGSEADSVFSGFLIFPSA
T1 sequence (P02746 28-253): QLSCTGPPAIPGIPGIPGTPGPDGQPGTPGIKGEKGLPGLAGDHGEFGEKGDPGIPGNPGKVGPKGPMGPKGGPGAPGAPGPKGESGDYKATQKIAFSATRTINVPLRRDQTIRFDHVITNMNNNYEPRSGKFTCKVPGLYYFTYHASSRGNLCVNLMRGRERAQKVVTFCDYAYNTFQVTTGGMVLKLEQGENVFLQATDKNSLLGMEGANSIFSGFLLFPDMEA
T1 sequence (P02747 29-245): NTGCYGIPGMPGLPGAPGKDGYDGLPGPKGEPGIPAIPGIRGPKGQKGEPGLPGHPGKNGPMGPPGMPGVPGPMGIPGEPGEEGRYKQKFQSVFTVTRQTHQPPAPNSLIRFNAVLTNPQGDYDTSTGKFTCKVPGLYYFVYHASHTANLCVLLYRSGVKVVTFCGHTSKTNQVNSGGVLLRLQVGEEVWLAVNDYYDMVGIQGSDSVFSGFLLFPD

Molecule | Mechanism of C1 inhibition [4] | other results
purified C1q: human C1q isolated from human donor plasma | – | Restoration of lysis of antibody-coated erythrocytes induced by C1q-depleted human serum [1]: completely restore; C4 activation by IgM after reconstitution of C1q-depleted serum [2]: complete restoration; C4 activation by mannan after addition to C1q-depleted serum [3]: slightly inhibited
AEAKAKA | Inhibits C1q ligand binding | Inhibition of activation of the classical complement pathway [5]: able to inhibit
CEGPFGPRHDLTFCW [Peptide 2J] | Binds C1q head, inhibits | Inhibition of binding of C1q to IgG [6]: inhibits; Inhibition of C1q-dependent hemolysis / C1q hemolytic function [7]: strong inhibitor
LEQGENVFLQATLL [Peptide CBP2] | Acts as a competitor for C1q | –
Surfactant protein A: collectin present in the lung | Inhibits C1q ligand binding | –
C1 inhibitor: plasma serine protease inhibitor | Inhibits C1r and C1s activity | –
KDIRCKDD | Inhibits C1q ligand binding | –
VQVHNAKTKPR | – | Inhibition of activation of the classical complement pathway [5]: able to inhibit
O=C(O)CN(CCN(CC(=O)O)CC(=O)O)CC(=O)O [EDTA] | – | Detection of C3 when present in the complement source [8]: reduced until background levels
human neutrophil peptide-1 [HNP-1] | Binds C1q tail and inhibits | –
B1 | Binds C1q head | –
B2 | Binds to C1q head | –
B3 | – | Inhibition of C1q-dependent hemolysis / C1q hemolytic function [7]: inhibit
